In the RNAGym collection of RNA variant scans (doi:10.1073/pnas.2313332121):

B1: TPR t1 (parent)
chain: GACCAAUCUGCCCUCAGAGCUCGAGAACAUCUUCGGAUGCAGAGGAGGCAGGCUUCGGUGGCGCGAUAGCGCCAACGUCCUCAACCUCCAAUGCAUCCCACCACAUGAUGAUGCCUGAAGAGCCUUGGUUUUUUG

Variants of: B1
Test: polymerase ribozyme fitness, log enrichment relative to wild type (log ratio); higher = more active; in vitro selection for triplet polymerase activity
Outline: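 Mutant libraries of both subunits of a heterodimeric triplet polymerase ribozyme were PCR-built, transcribed, and selected once in triplicate, with frozen incubation at −7 °C and capture of gel-excised extended constructs on streptavidin beads before RT-PCR. Illumina sequencing of input and output libraries was filtered to genotypes with ≥10 input reads and ≥1 read per output. Fitness is the logarithm of genotype enrichment over wild-type enrichment, using inverse-variance-weighted replicate averages. The logarithm is base 2.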

In order of falling “polymerase ribozyme fitness (log ratio)” value:
1. C73U C124U  1.94
2. C73G A90G C104U U112C A121U U130C  1.89
3. G77A C79U C124A  1.87
4. C73A C86U C124A  1.85
5. C73A C123G  1.74
6. C76U G120A  1.69
7. C73G C124A  1.65
8. C73A C123A  1.63
9. C73U C124A G127C  1.61
10. A75G C123U  1.55
11. A74U A121U C124A  1.47
12. C73G A121C  1.42
13. A74C U106A C123U  1.18
14. A75G C82U A121G C124G  1.16
15. C76G C123U  1.06
16. C73A C104U U130G U132C  1.03
17. A74G G77U C123U  0.945
18. C73G G117A C124A  0.864
19. C73A C124G  0.687
20. C76U C94A U106C U112C  0.627
21. C73U G120A  0.593
22. C76U C123G  0.558
23. C73A C123A G135C  0.5
24. C73U C82A  0.468
25. C76A A121U U125G  0.374
26. C73U C104U C115A  0.332
27. G77C C115A  0.325
28. C76U C79A G120C  0.319
29. A74U C104A C124G  0.0488
30. C73U C79U C104U  -0.0392
31. G77C C88A  -0.0409
32. C73U G113A  -0.0568
33. A74C G77C  -0.117
34. C73U U125A  -0.171
35. C73G G120A  -0.212
36. C73U U106A  -0.212
37. C73U U132C  -0.238
38. A74C U130A  -0.25
39. A74C A84U  -0.261
40. G77A  -0.264
41. C73U C86A  -0.276
42. C73G C115G  -0.331
43. C76G G93A C104U U133A  -0.348
44. C73U C88U  -0.361
45. G77C  -0.424
46. C73G C101U  -0.446
47. C73A U129C  -0.459
48. C73U C89U C101U  -0.461
49. C73A U87G  -0.467
50. C73U G127U  -0.489
51. C73A U78C C94U  -0.492
52. A74U G93A  -0.498
53. C76A A91G C115A  -0.508
54. C76A G117A C124A  -0.549
55. C73U C115U  -0.667
56. C73U G127C  -0.681
57. C73U G110A  -0.705
58. G77C C94U  -0.725
59. G77A C88G  -0.754
60. C73U U129G  -0.782
61. A74C C101U U132C  -0.834
62. A74U U87A  -0.842
63. A74U U125A U131G  -0.852
64. A74U U96C  -0.884
65. C76U U81A  -0.892
66. A74U C88G U112G U132G G135A  -0.922
67. C73U C101G G120U  -0.999
68. C76G A90C C101U  -1
69. C73G C101U U133A  -1.03
70. A75G C88G  -1.04
71. C73U U129A  -1.05
72. C73A C104A  -1.07
73. C73G G120A U129G  -1.1
74. G77A U96G  -1.12
75. C73U U78A C88G G120U  -1.15
76. C73U U96A  -1.16
77. C73G G110A  -1.17
78. C73G U133G  -1.21
79. A74C C76A A121C  -1.23
80. C73G C86U  -1.29
81. C73G G113A  -1.29
82. C73U A90C A95C  -1.36
83. A74U C114G C124A U125C  -1.43
84. C73U U87C C89G G120A  -1.46
85. C73G U116C U131A  -1.53
86. G77A A91U  -1.6
87. A74U A111C  -1.62
88. A74U C101U G113A C123G  -1.64
89. C73U A84U G110U  -1.67
90. C73U U126A  -1.7
91. C73A U126A  -1.73
92. A75G A83C G93C  -1.73
93. C73A C86U G128A  -1.81
94. C73U C76G U112G  -1.81
95. C73G G127A  -1.82
96. C73U U87A A105U  -1.83
97. C73A C114A  -1.84
98. C76U A90G A105U  -1.84
99. A74U U126G  -1.89
100. C73G A119U U132C  -1.94
101. C73G C104A  -1.94
102. C73G C115U  -1.97
103. C76U U112A U116G  -2.03
104. C73A G128C  -2.05
105. A74C C101G  -2.14
106. C76G U81C C94A G117A  -2.22
107. A74C U78G C80U C115A  -2.23
108. C73U U78C U92G  -2.25
109. C73A G113C  -2.27
110. C73G U129G  -2.27
111. A74C C82A A105U  -2.29
112. A75G C114A  -2.36
113. C76U G113U  -2.36
114. A75G G113C  -2.4
115. G77C C114A C124U  -2.41
116. C76A C89A U133C  -2.43
117. C73U C97U C102A U130C  -2.5
118. C76U A105C  -2.5
119. G77A U78C C115G  -2.5
120. C73G C86G  -2.52
121. C73A G117U  -2.74
122. C73G C102A  -2.76
123. G77C C114A G127C  -2.76
124. C73U U96G G117A  -2.78
125. A75U C76G C88A A90U C114U  -2.85
126. C73A C86U A100U C102A  -2.87
127. C73U C79A A90C C115A  -2.96
128. G77A C82A G110A C123A  -2.98
129. G77A C104A G128A  -3.06
130. C73G A83U C88G U130A  -3.2
131. C73U U81A  -3.27
132. C73G C85U G93U A95G C123A  -3.28
133. A75U C82G U96A C115G  -3.29
134. C73U A74G C99U  -3.36
135. C73U U96C C99U  -3.39
136. A75U C99U  -3.69
137. C76G C82G G128U  -3.7
138. C73G C94A C102U  -3.82
139. C73A C102U G128C  -3.88
140. G77A C89A C94U G122A  -4.01
141. G77A U116A  -4.07
142. C73A C99U A119U U130A  -4.24
143. G77C G117C  -4.29
144. A74U G110C  -4.41
145. C73A U87A G120C C124A U132G  -4.42
146. C73A U106G G110C  -4.6
147. A75G C80A G128U U133C G135C  -4.6
148. C76A G93C C94A U112G  -4.68
149. C76U G110C  -4.7
150. G77A A83C C94U C115G U116C U125G  -4.83
151. C73G A103C  -4.89
152. C73U C98A  -4.94
153. G77A A83U U87C C104U A105C  -5.02
154. C73U C86G C115G U129A  -5.03
155. C73U G117A G128C  -5.18
156. C73G U109A  -5.36
157. A74U G93U G117C  -5.37
158. A75U C97A  -5.53
159. C73U C80A A90U U106A  -5.89
160. C73A C88G A111U U129G  -5.91
161. A74G C102G U132C  -5.92
162. G77A U109A  -5.95
163. C73U A75G G77A U109G  -6.15
164. A74C G113U C115U G117A C123A  -6.47
165. A74U A83G C99U A100U G120U  -6.6
166. C73G U109G  -6.77
167. A75U C99U U109G C115U U116A  -7.29
